Laboratory results: article PMC10097714, “ALS-linked TDP-43 mutations interfere with the recruitment of RNA recognition motifs to G-quadruplex RNA”
One block for each molecule: values may come before it.

Assays:
[1] = biological target: His-tagged RRM segment of TDP-43 (101-261aa) (UniProt Q13148); assay: GST pull-down (glutathione sepharose beads) with western blotting, band quantification; conditions: three experiments, parent: est. 1.0, read off a plot
TDP-43 WT full-length [2] = biological target: T1, TDP-43 WT full-length (human, UniProt Q13148 1-414); assay: EMSA (agarose); up to 10x protein; EMSA: 20 mM PIPES-NaOH pH 6.8, 150 mM NaCl, 0.8 mM MgCl2, 10% glycerol, 0.1 mg/ml BSA, 0.1 mg/ml poly-dI-dC, 25 C, gel 0.5x TBE pH 6.8; SPR: 20 mM PIPES pH 6.8, 12 mM KCl, 0.8 mM MgCl2, 150 mM NaCl, 0.05% Tween-20, 25 C; UV cross-linking: EMSA buffer without poly-dI-dC; pull-down: PIPES pH 6.8, 145 mM NaCl, 5.4 mM KCl, 0.8 mM MgCl2, 1.8 mM CaCl2, 0.05% Tween-20, 10% glycerol, 4 C; conditions: protein: recombinant; tags: untagged; chain copies: 2; label: 3' Alexa Fluor 647
GST-RRM [3] = biological target: T2, GST-RRM (human, UniProt Q13148 101-261); assay: EMSA (agarose); EMSA: 20 mM PIPES-NaOH pH 6.8, 150 mM NaCl, 0.8 mM MgCl2, 10% glycerol, 0.1 mg/ml BSA, 0.1 mg/ml poly-dI-dC, 25 C, gel 0.5x TBE pH 6.8; SPR: 20 mM PIPES pH 6.8, 12 mM KCl, 0.8 mM MgCl2, 150 mM NaCl, 0.05% Tween-20, 25 C; UV cross-linking: EMSA buffer without poly-dI-dC; pull-down: PIPES pH 6.8, 145 mM NaCl, 5.4 mM KCl, 0.8 mM MgCl2, 1.8 mM CaCl2, 0.05% Tween-20, 10% glycerol, 4 C; conditions: protein: recombinant; tags: GST; label: 3' Alexa Fluor 647
GST-RRM [4] = biological target: T2, GST-RRM; assay: EMSA (agarose); higher affinity than CaMKIIa G4; EMSA: 20 mM PIPES-NaOH pH 6.8, 150 mM NaCl, 0.8 mM MgCl2, 10% glycerol, 0.1 mg/ml BSA, 0.1 mg/ml poly-dI-dC, 25 C, gel 0.5x TBE pH 6.8; SPR: 20 mM PIPES pH 6.8, 12 mM KCl, 0.8 mM MgCl2, 150 mM NaCl, 0.05% Tween-20, 25 C; UV cross-linking: EMSA buffer without poly-dI-dC; pull-down: PIPES pH 6.8, 145 mM NaCl, 5.4 mM KCl, 0.8 mM MgCl2, 1.8 mM CaCl2, 0.05% Tween-20, 10% …; conditions: protein: recombinant; tags: GST; label: 5' Cy3, 3' Alexa Fluor 647; parallel G4, A loop
TDP-43 WT full-length [5] = biological target: T1, TDP-43 WT full-length; assay: EMSA (agarose); EMSA: 20 mM PIPES-NaOH pH 6.8, 150 mM NaCl, 0.8 mM MgCl2, 10% glycerol, 0.1 mg/ml BSA, 0.1 mg/ml poly-dI-dC, 25 C, gel 0.5x TBE pH 6.8; SPR: 20 mM PIPES pH 6.8, 12 mM KCl, 0.8 mM MgCl2, 150 mM NaCl, 0.05% Tween-20, 25 C; UV cross-linking: EMSA buffer without poly-dI-dC; pull-down: PIPES pH 6.8, 145 mM NaCl, 5.4 mM KCl, 0.8 mM MgCl2, 1.8 mM CaCl2, 0.05% Tween-20, 10% glycerol, 4 C; conditions: protein: recombinant; tags: untagged; chain copies: 2; label: 5' Cy3, 3' Alexa Fluor 647; parallel G4, A loop
TDP-43 WT full-length [6] = biological target: T1, TDP-43 WT full-length; assay: EMSA (agarose); lower affinity than PSD-95 G4; EMSA: 20 mM PIPES-NaOH pH 6.8, 150 mM NaCl, 0.8 mM MgCl2, 10% glycerol, 0.1 mg/ml BSA, 0.1 mg/ml poly-dI-dC, 25 C, gel 0.5x TBE pH 6.8; SPR: 20 mM PIPES pH 6.8, 12 mM KCl, 0.8 mM MgCl2, 150 mM NaCl, 0.05% Tween-20, 25 C; UV cross-linking: EMSA buffer without poly-dI-dC; pull-down: PIPES pH 6.8, 145 mM NaCl, 5.4 mM KCl, 0.8 mM MgCl2, 1.8 mM CaCl2, 0.05% Tween-20, 10% …; conditions: protein: recombinant; tags: untagged; chain copies: 2; label: 5' Cy3, 3' Alexa Fluor 647; parallel G4
GST-RRM [7] = biological target: T2, GST-RRM; assay: as above; conditions: protein: recombinant; tags: GST; label: 5' Cy3, 3' Alexa Fluor 647; parallel G4

- ratio to parent ([1]; + CaMKIIα G4 RNA): 0.52
- ratio to parent ([1]; + PSD-95 G4 RNA): 0.31
Molecule: GST-fused wild-type glycine-rich (GR) segment of TDP-43 G287S

- ratio to parent ([1]; + CaMKIIα G4 RNA): 0.26
- ratio to parent ([1]; + PSD-95 G4 RNA): 0.2
Molecule: GST-fused wild-type glycine-rich (GR) segment of TDP-43 M337V

Molecule: UGUGUGUGUGUGUGUGUGUG (ssRNA) [UG10-Ax647]
- binding result (TDP-43 WT full-length [2]): no binding
- binding result (GST-RRM [3]): binds

Molecule: GGGGAAAAGGGAGGGAUGGG (structured_RNA) [Cy3-PSD-Ax647]
- binding result (GST-RRM [4]): binds
- binding result (TDP-43 WT full-length [5]): binds

Molecule: UGGGGGGGGCGGGUGGGA (structured_RNA) [Cy3-CaMKII-Ax647]
- binding result (TDP-43 WT full-length [6]): binds
- binding result (GST-RRM [7]): binds
